# Assay results: patent publication US20250346644A1 (LATTICON SUZHOU BIOPHARMACEUTICALS, published 2025)
# Like-named read-outs stand apart in the source and are kept apart here.
# T1: hIL2-TM-his (human, UniProt P60568 21-153)
# T1 construct: also called hIL-2 mutein containing three point mutations K64G, N90R and M104E (with a his-tag); not shown: his-tag
# T1 chain: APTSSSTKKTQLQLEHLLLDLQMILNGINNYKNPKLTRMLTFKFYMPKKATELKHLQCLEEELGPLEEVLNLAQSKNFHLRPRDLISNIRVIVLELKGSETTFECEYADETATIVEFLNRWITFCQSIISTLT
# T2: mIL2-his (mouse, UniProt P04351 21-169)
# T2 construct: also called wild-type mouse IL-2 (with a his-tag); not shown: his-tag
# T2 sequence (looked up): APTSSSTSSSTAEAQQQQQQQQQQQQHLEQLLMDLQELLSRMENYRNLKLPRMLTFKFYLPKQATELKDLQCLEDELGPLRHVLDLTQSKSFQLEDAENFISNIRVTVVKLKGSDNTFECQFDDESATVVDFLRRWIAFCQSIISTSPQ
# Experiments:
# hIL2-DM-his [1] = molecular target: T3, hIL2-DM-his (human, UniProt P60568 21-153); experiment: BLI ForteBio, Ab on Protein A sensor
# T3 construct: expressed in ExpiCHO-S cells, nickel-column purified; also called hIL-2 mutein containing two point mutations K64G and N90R (with a his-tag); not shown: his-tag
# hIL2-TM-his = molecular target: T1, hIL2-TM-his; experiment: BLI ForteBio, Ab on Protein A sensor
# hIL2-DM-his [2] = molecular target: T3, hIL2-DM-his; experiment: BLI ForteBio, Ab on Protein A sensor; remark: listed apart in the source
# Target sequence in this assay (P60568 21-153 K84G/N110R): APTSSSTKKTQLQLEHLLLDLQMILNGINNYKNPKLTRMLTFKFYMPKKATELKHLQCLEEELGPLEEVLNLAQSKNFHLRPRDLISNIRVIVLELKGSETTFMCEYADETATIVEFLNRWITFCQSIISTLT
# hIL2-his = molecular target: T4, hIL2-his (human, UniProt P60568 21-153); experiment: ELISA (section 2.1.1): antibody (13.3 nM) captured on coated goat anti-human IgG, hIL2-his titrated (the x axis is the antigen concentration), HRP anti-6xHis
# T4 construct: the construct is not described further; not shown: his-tag
# mIL2-his [3] = molecular target: T2, mIL2-his; experiment: ELISA, antibody captured by anti-human IgG, mIL2-his titrated
# mIL2-his [4] = molecular target: T2, mIL2-his; experiment: BLI ForteBio, Ab on Protein A sensor
binder,measurement,setting,value
"hS4B6-H6K3 (antibody, V domains shown, full antibody) VH: QVQLVQSGAEVKKPGATVKISCKVSGDTITAYYLHWVRQAPGQGLEWIGRIDPEDDSTKYAENFKNRVTITADTSTNTAYMELSSLRSEDTAVYYCTTVTFYYSRELRWFAYWGQGTLVTVSS VL: DIVLTQSPATLSLSPGERATLSCQASQDIGNYLSWYQQKPGQAPRLLIYSATSLADGIPARFSGSRSGTDYTLTISSLEPEDFAVYYCLQHYSTPYTFGQGTKLEIK",Kd,hIL2-DM-his [1],45.3 nM
same,koff,hIL2-DM-his [1],0.01 s⁻¹
same,kon,hIL2-DM-his [1],222000 M⁻¹ s⁻¹
same,Kd,hIL2-TM-his,24 nM
same,koff,hIL2-TM-his,0.00569 s⁻¹
same,kon,hIL2-TM-his,237000 M⁻¹ s⁻¹
same,Binding Response (nm),hIL2-DM-his [2],0.133 nm
same,Kd,hIL2-DM-his [2],46.9 nM
same,koff,hIL2-DM-his [2],0.0193 s⁻¹
same,kon,hIL2-DM-his [2],413000 M⁻¹ s⁻¹
same,binding result,hIL2-his,no binding (tested: 2 µg/mL)
same,EC50,mIL2-his [3],0.0183 µg/mL
same,Kd,mIL2-his [4],1 nM
same,koff,mIL2-his [4],0.00018 s⁻¹
same,kon,mIL2-his [4],179000 M⁻¹ s⁻¹
